Paper PMC5962072, “Structural insights on the efficient catalysis of hydroperoxide reduction by Ohr: Crystallographic and molecular dynamics approaches” (PLoS ONE, 2018)

Molecular target: Cys61 (UniProt position 61, AGYSACFIGAL)
Assay: chemical modification
Details: room temperature; Reduced (dithiol) protein after DTT treatment and desalting; no ligand.

Question: With “Organic hydroperoxide resistance protein (Ohr, XfOhr) (Xylella fastidiosa)” as the substance, how does the pKa read?
Answer: The pKa was 5.92 ± 0.11.
